Assay [1] deals with recombinant rhesus OX40-his (Sino Biological, Cat#:90846-C08H) (rhesus monkey). Put plainly: ELISA, coated rhOX40-his. On the technique in general: ELISA stands for enzyme-linked immunosorbent assay.
Assay [2] deals with recombinant human OX40-his (Sino Biological, Cat#:10481-H03H) (human) (UniProt P43489). Put plainly: SPR Biacore 8K, OX40-His on chip, antibody injected. (In general: In SPR one partner is held on a chip, and binding of the other changes the refractive index at the surface.)
Chain of recombinant human OX40-his (Sino Biological, Cat#:10481-H03H) (human) (P43489 29-214 limits assumed): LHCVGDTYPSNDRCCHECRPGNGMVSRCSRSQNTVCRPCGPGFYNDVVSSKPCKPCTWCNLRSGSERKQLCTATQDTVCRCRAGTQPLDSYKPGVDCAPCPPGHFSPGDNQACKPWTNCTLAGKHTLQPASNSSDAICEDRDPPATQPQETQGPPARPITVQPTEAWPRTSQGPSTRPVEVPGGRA
Assay [3] addresses rhesus OX40 expressed on HEK293A cells (rhesus). The experiment in a line: FACS on HEK293A cells.
Assay [4] has as its target human OX40 expressed on HEK293A cells (human) (UniProt P43489). Put plainly: FACS on HEK293A cells.
Assay [5] addresses recombinant human OX40-his (Sino Biological, Cat#:10481-H03H) (human) (UniProt P43489). Put plainly: ELISA, coated hOX40-his.
In assay [6] the target is recombinant rhesus OX40-his (Sino Biological, Cat#:90846-C08H) (rhesus monkey). Put plainly: ELISA on coated rhesus OX40-His, OD450.
Assay [7] has as its target rhesus OX40 expressed on HEK293A cells (rhesus). Put plainly: FACS on HEK293A/rhOX40 cells, MFI.
Assay [8] deals with human OX40-CD40 fusion protein on HEK-Blue reporter cells (human). Put plainly: cell-based or functional assay.
Chain of human OX40-CD40 fusion protein on HEK-Blue reporter cells (human) (chain, as listed by the source limits assumed): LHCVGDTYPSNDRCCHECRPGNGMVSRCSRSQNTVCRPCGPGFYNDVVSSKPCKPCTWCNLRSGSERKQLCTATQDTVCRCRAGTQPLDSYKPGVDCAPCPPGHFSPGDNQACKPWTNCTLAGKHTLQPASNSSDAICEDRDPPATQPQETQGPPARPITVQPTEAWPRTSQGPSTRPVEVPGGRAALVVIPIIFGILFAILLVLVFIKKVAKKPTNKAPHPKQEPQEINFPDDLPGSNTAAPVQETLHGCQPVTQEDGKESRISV
Assay [9] deals with recombinant human OX40-his (Sino Biological, Cat#:10481-H03H) (human) (UniProt P43489). The experiment in a line: ELISA on coated human OX40-His, OD450.
The target in assay [10] is human OX40 expressed on HEK293A cells (human) (UniProt P43489). The experiment in a line: FACS on HEK293A/huOX40 cells, MFI.
Chain of human OX40 expressed on HEK293A cells (human) (P43489 29-277 limits assumed): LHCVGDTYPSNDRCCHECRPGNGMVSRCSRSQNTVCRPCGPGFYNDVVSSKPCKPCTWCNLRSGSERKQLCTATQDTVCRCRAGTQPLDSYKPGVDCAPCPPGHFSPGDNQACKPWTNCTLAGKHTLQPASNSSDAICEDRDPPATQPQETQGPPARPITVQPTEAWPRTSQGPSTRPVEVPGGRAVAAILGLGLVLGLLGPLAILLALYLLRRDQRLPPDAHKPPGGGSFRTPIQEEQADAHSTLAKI

Chain of rhesus OX40 expressed on HEK293A cells (rhesus) (P43489 other isoform, or with tags, fused parts or gaps limits assumed): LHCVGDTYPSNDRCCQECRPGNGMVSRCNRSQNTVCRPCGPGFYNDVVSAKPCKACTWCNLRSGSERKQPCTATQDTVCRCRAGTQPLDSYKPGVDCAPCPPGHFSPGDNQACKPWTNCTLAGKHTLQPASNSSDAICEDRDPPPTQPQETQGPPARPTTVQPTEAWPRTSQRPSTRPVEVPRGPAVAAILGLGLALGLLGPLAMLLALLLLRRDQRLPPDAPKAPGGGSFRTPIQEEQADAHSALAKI
Chain of recombinant rhesus OX40-his (Sino Biological, Cat#:90846-C08H) (rhesus monkey) (P43489 other isoform, or with tags, fused parts or gaps C08H C08H limits assumed): as the sequence (P43489 29-214 limits assumed) above, with H16Q, S29N, S50A, P55A, L70P, A145P, I159T, G173R, G183R, R185P counted along it

B1: MEDI0562 (antibody, INN chains, looked up, V domains shown)
VH: QVQLQESGPGLVKPSQTLSLTCAVYGGSFSSGYWNWIRKHPGKGLEYIGYISYNGITYHNPSLKSRITINRDTSKNQYSLQLNSVTPEDTAVYYCARYKYDYDGGHAMDYWGQGTLVTVSS
VL: DIQMTQSPSSLSASVGDRVTITCRASQDISNYLNWYQQKPGKAPKLLIYYTSKLHSGVPSRFSGSGSGTDYTLTISSLQPEDFATYYCQQGSALPWTFGQGTKVEIK
As to B1, the EC50 worked out at 0.0546 µg/mL in assay [1], 0.088 µg/mL in assay [3], 0.0935 µg/mL in [4] and 0.0651 µg/mL in assay [5]. The Kd in assay [2] is 1.79 nM. Further, the koff in [2] amounted to 0.000154 s⁻¹. Moreover, in assay [2], the kon turned out to be 86300 M⁻¹ s⁻¹. For the same molecule, the EC50 (read off the curve) in [6] came out at 0.003 µg/mL; in assay [7], 0.3 µg/mL; in assay [9] it was 0.003 µg/mL; in [10], 0.3 µg/mL. This molecule also gave an EC50, agonistic activity in HEK-Blue assay in assay [8] of 0.31 µg/mL.

B2: RG7888 (antibody, INN chains, looked up, V domains shown)
VH: EVQLVQSGAEVKKPGASVKVSCKASGYTFTDSYMSWVRQAPGQGLEWIGDMYPDNGDSSYNQKFRERVTITRDTSTSTAYLELSSLRSEDTAVYYCVLAPRWYFSVWGQGTLVTVSS
VL: DIQMTQSPSSLSASVGDRVTITCRASQDISNYLNWYQQKPGKAPKLLIYYTSRLRSGVPSRFSGSGSGTDFTLTISSLQPEDFATYYCQQGHTLPPTFGQGTKVEIK
For B2, the EC50 stood at 0.0668 µg/mL in assay [1], 0.113 µg/mL in assay [3], 0.134 µg/mL in assay [4] and 0.0637 µg/mL in [5]. Further, the Kd in assay [2] was 0.00549 nM. Also, the koff in assay [2] was 1.76e-06 s⁻¹. In addition, the kon in [2] was found to be 322000 M⁻¹ s⁻¹. In addition, the EC50 (read off the curve) in assay [6] and in assay [9] was 0.003 µg/mL throughout. For the same molecule, in assay [8], the EC50, agonistic activity in HEK-Blue assay came to 0.121 µg/mL.

A word on the EC50: it is the concentration that produces a half-maximal response. The Kd is the equilibrium constant for the complex coming apart. As a reminder, the koff is the rate constant with which the complex falls apart. As usually defined, the kon is the second-order rate constant of association. Broadly, the EC50 (read off the curve) is the concentration needed to bring the measured effect to its halfway point.

The values are drawn from patent US10442866.
